Reference: article doi:10.1101/2020.06.12.149468

Target: DesC, NADH-dependent 20α-hydroxysteroid dehydrogenase of Clostridium scindens ATCC 35704 (Clostridium scindens ATCC 35704)
Assay: crystal structure

“DesC, NADH-dependent 20α-hydroxysteroid dehydrogenase of Clostridium scindens ATCC 35704 (enzyme)” gave a stoichiometry N of 4.
